Data from PMC7112440.
Read-outs that look alike come from different tables or passages of the source.

Key:
[1] = target: human norovirus HuNoV (GII.4), virus from a positive stool sample (human norovirus GII.4); assay: BLI
[2] = target: human norovirus HuNoV (GII.4), virus from a positive stool sample (human norovirus GII.4); assay: SPR
[3] = target: viral hemorrhagic septicemia virus (VHSV) genotype IVa; assay: SPR
[4] = target: concanavalin A (Con A) isolated from Canavalia ensiformis (Jack bean) (Canavalia ensiformis); assay: capture on a column of Con A-immobilised polyacrylate beads
[5] = target: concanavalin A (Con A) isolated from Canavalia ensiformis (Jack bean) (Canavalia ensiformis); assay: as above; remark: listed apart in the source

Substance | virus recovery (%) [5] | other results
concanavalin A (Con A) isolated from Canavalia ensiformis (Jack bean) (natural protein) |  | association, fold over the commercial HuNoV antibody [1]: 10 fold; Kd [2]: 71.5 nM; Kd [3]: 710 nM
human norovirus HuNoV (GII.4), virus from a positive stool sample (complex) | 90.6% | HuNoV recovery (%) from lettuce [4]: 89.5%; HuNoV recovery (%) from milk [4]: 60.8%; HuNoV recovery (%) from strawberry [4]: 70.8%; virus recovery (%) [4]: > 90%
human norovirus HuNoV GI.3, virus from a positive stool sample (complex) | 68.5% | 
human norovirus HuNoV GI.8, virus from a positive stool sample (complex) | 56.2% | 
human norovirus HuNoV GII.2, virus from a positive stool sample (complex) | 85.2% | 
human norovirus HuNoV GII.6, virus from a positive stool sample (complex) | 41.8% | 
human norovirus HuNoV GII.8, virus from a positive stool sample (complex) | 77.8% | 
human norovirus HuNoV GII.17, virus from a positive stool sample (complex) | 61.4% | 
